# Legend:
# [1] = target: Taxol-stabilized microtubules of mouse brain tubulin (untreated, wild-type) (mouse) (UniProt P68369); experiment: cell lysate-based TIRF microscopy on immobilised microtubules
# [2] = target: Taxol-stabilized microtubules of mouse brain tubulin (untreated, wild-type) (mouse) (UniProt P68369); experiment: FRAP in TIRF microscopy on immobilised microtubules
substance,measurement,setting,value
YFP-Trim69 wild type (Tripartite motif protein 69) (from UniProt Q86WT6 1-500) (natural protein),cumulative fluorescent signal on MTs,[1],395
same,density on MTs at 10x lysate dilution,[1],2980
same,density on MTs at 100x lysate dilution,[1],731
same,fluorescent intensity on microtubules,[1],194
same,fluorescence recovery at 6.5 min after photobleaching,[2],20%

# From publication doi:10.1101/2025.02.06.636796
